Assay results taken from patent EP3632934A1 (F. Hoffmann-La Roche AG, dated 2020).

Target: T1, human OX40 (Sino Biological Inc) (human, UniProt P43489 29-216)
T1 construct: Bought soluble protein used as SPR analyte; also called huOX40
T1 sequence: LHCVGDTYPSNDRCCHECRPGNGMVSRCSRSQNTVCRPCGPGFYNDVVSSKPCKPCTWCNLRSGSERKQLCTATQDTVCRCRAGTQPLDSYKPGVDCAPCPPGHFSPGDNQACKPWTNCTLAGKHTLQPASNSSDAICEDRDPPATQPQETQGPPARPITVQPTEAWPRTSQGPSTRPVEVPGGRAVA
Assay: SPR, Biacore; against parent 1A7.gr.1

B1: 1A7.gr.SGDS (antibody, V domains shown)
VH: EVQLVQSGAEVKKPGASVKVSCKASGYTFTDSYMSWVRQAPGQGLEWIGDMYPDSGDSSYNQKFRERVTITRDTSTSTAYLELSSLRSEDTAVYYCVLAPRWYFSVWGQGTLVTVSS
VL: DIQMTQSPSSLSASVGDRVTITCRASQDISNYLNWYQQKPGKAPKLLIYYTSRLRSGVPSRFSGSGSGTDFTLTISSLQPEDFATYYCQQGHTLPPTFGQGTKVEIK
fold loss of binding affinity against 1A7.gr.1: 2 fold
